Results as given in paper PMC11741606 (2025).

Assays:
[1] = target: T1, TGEV RBD (receptor-binding domain of the transmissible gastroenteritis coronavirus spike protein) (transmissible gastroenteritis …); test: SPR
T1 chain: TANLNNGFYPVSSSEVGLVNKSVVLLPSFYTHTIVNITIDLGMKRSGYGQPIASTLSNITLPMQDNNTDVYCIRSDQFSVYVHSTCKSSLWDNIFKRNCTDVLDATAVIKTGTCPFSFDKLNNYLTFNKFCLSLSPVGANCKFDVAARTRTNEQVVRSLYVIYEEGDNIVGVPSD

[2] = target: Arabian camel aminopeptidase N ectodomain fused with the Fc domain of human IgG (Arabian camel (Camelus dromedarius)); test: SPR

Binder	Kd [1] [nM]	Kd [2] [nM]
cat aminopeptidase N ectodomain fused with the Fc domain of human IgG (Fc fusion) YSQEKNRSTESSTAASTAAPTGPTTTVATTLDQSKPWNVYRLPKTLIPDSYNVTLRPYLTPNNKGLYVFTGTNIVRFTCKESTNIVIIHSKRLNYTSHQGHMVALSGVGGFHPQPVIVRTELVELTEYLVVHLQEPLVAGRQYEMNSEFQGELADDLAGFYRSEYMENGVKKVLATTHMQATEARKSFPCFDEPAMKATFNITIIHPNNLVALSNMLPRGPSVPFGEDPTWKVTEFETTPIMSTYLLAYIVSEFSYVETRAPSGVLIRIWARPSAINQGHGDYALKVTGPILDFFSQHYDTPYPLNKSDQIALPDFNAGAMENWGLVTYRESALLYDRQSSSSGNQERVVTVIAHELAHQWFGNLVTLEWWNDLWLNEGFASYVEYLGADFAEPTWNLKDLMVLNDVYRVMAVDALASSHPLSTPASEINTPAQISEVFDSISYSKGASVLRMLSNFLTEDLFKMGIASYLHTYKYGNTIYLNLWEHLQQVVDKQPTIKLPDTVSAIMDRWILQMGFPVITVDTQTGTISQQHFLLDPQSVVTRPSQFNYLWIVPISSVRSGSPQAHYWLPGVEKAQNDLFKTTANDWVLLNLNVTGYYLVNYDNENWKKIQTQLQTDLSVIPVINRAQVIHDAFNLASAQKVPVTLALNNTLFLIQETEYMPWQAALSSLSYFKLMFDRSEVYGPMKRYLKKQVTPLFNHFERVTKNWTDHPQTLMDQYSEINAVSTACSYGVPECEKLAATLFAQWKKNPQNNPIHPNLRSTVYCNAIAQGGEEEWNFVWEQFLKAELVNEADKLRGALACSNQVWILNRFLSYTLDPNLIRKQDVTSTLSSISSNVVGQTLVWDFVQSNWKKLFQDYGTGSFSFSNLIQAVTRRFSTEFELQQLEQFKKNNMDTGFGSATRALEQALEKTKANLKWVKENKDVVLRWFTENS	35.6	
bovine aminopeptidase N ectodomain fused with the Fc domain of human IgG (Fc fusion, Wild type. Position 797 in the paper is dog APN alignment numbering, not bovine numbering. Limits from TOPO_DOM extracellular. hFc carrier omitted. N-glycosylated (HEK293T).) YAQEKNKNAERGTAAPTSPTGPTTTSATTLDQSKPWNRYRLPTTLLPDSYRVTLRPYLTPNNNGLYIFTGSSTVRFTCKEPTDVIIIHSKKLNYTQHSGHLAALKGVGDTQAPEIDRTELVLLTEYLVVHLKSSLEAGKTYEMETTFQGELADDLAGFYRSEYMDGNVKKVLATTQMQSTDARKSFPCFDEPAMKATFNITLIHPKDLTALSNMPPKGPSVPFDGDSNWSVTEFETTPVMSTYLLAYIVSEFTSVESVAPNDVQIRIWARPKATADNHGLYALNVTGPILNFFANHYNTAYPLPKSDQIALPDFNAGAMENWGLVTYRENALLYDPQSSSSSNKERVVTVIAHELAHQWFGNLVTLAWWNDLWLNEGFASYVEYLGADYAEPTWNLKDLMVPNDVYSVMAVDALVTSHPLTTPANEVNTPAQISEMFDTISYSKGASVIRMLSNFLTEDLFKKGLASYLQTFAYQNTTYLNLWEHLQMAVENQLSIRLPDTVSAIMDRWTLQMGFPVITVDTNTGTISQKHFLLDPNSTVTRPSQFNYLWIVPISSIRNGQPQEHYWLRGEERNQNELFKAAADDWVLLNINVTGYYQVNYDENNWKKIQNQLMSRRENIPVINRAQVIYDSFNLASAHMVPVTLALNNTLFLKNEMEYMPWQAAVSSLNYFKLMFDRTEVYGPMQNYLKNQVEPIFLYFENLTKNWTEIPENLMDQYSEINAISTACSNGLPKCEELAKTLFNQWMNNPNVNPIDPNLRSTIYCNAIAQGGQEEWDFAWNQLQQAELVNEADKLRSALACTNHVWLLNRYLSYTLNPDLIRKQDATSTITSIASNVIGQSLAWDFIRSNWKKLFEDYGGGSFSFSNLIQGVTRRFSTEFELQQLEEFKENNMDVGFGSGTRALEQALEKTKANINWVKENKEVVLNWFKDHS	1660	
PDCoV RBD (receptor-binding domain of the porcine deltacoronavirus spike protein) (domain or fragment) VTLPKLPELEVVQLNISAHMDFGEARLDSVTINGNTSYCVTKPYFRLETNFMCTGCTMNLRTDTCSFDLSAVNNGMSFSQFCLSTESGACEMKIIVTYVWNYLLRQRLYVTAVEGQTHTGTTSVHATDTSSV		10800
